Measured values from publication PMC4797271, “The quorum-sensing regulator ComA from Bacillus subtilis activates transcription using topologically distinct DNA motifs”.
Substitutions are numbered along the chain they refer to. Names may count otherwise.

Experiments:
[1] = molecular target: T1, ComA (Bacillus subtilis, UniProt P14204 1-214); assay: EMSA; EMSA: 10 mM HEPES pH 7.6, 2 mM MgCl2, 0.1 mM EDTA, 200 mM KCl, 5 mM DTT, 10% glycerol; 10 ng DNA in 15 ul, 20 min, room temperature; conditions: protein: recombinant; tags: N-terminal His6 (from expression primer); chain copies: 2; label: 5' biotin on strand 1; blunt
T1 sequence: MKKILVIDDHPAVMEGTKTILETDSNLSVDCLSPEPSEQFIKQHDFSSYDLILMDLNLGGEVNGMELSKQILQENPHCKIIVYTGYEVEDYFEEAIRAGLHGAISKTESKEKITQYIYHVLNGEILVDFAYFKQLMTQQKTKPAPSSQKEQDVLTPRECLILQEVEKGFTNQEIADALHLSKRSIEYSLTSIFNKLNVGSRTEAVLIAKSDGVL

[2] = molecular target: T1, ComA; assay: EMSA; complex at 1.2 uM or more; affinity similar to PDR; EMSA: 10 mM HEPES pH 7.6, 2 mM MgCl2, 0.1 mM EDTA, 200 mM KCl, 5 mM DTT, 10% glycerol; 10 ng DNA in 15 ul, 20 min, room temperature; conditions: protein: recombinant; tags: N-terminal His6 (from expression primer); chain copies: 2; label: 5' biotin on strand 1; blunt
[3] = molecular target: T2, ComA;RNA polymerase alpha subunit (Bacillus subtilis;Bacillus subtilis, UniProt P14204;P20429 1-214;1-314, |); assay: EMSA; supershift, same alpha concentration as PDR; EMSA: 10 mM HEPES pH 7.6, 2 mM MgCl2, 0.1 mM EDTA, 200 mM KCl, 5 mM DTT, 10% glycerol; 10 ng DNA in 15 ul, 20 min, room temperature; conditions: protein: recombinant;recombinant; tags: N-terminal His6 (from expression primer);N-terminal His6 (from expression primer); label: 5' biotin on strand 1; blunt
T2 sequence 1: T1 sequence
T2 sequence 2: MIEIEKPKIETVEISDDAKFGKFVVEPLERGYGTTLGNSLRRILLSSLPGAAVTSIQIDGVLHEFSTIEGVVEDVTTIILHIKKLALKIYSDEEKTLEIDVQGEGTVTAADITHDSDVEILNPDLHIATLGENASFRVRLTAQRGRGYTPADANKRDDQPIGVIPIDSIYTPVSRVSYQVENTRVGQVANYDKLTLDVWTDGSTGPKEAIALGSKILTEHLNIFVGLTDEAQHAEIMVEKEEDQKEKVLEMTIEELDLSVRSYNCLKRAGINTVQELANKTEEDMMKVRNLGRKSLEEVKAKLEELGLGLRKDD

[4] = molecular target: T3, ComA;sigma factor sigmaA (Bacillus subtilis;Bacillus subtilis, UniProt P14204;P06224 1-214;1-371, |); assay: EMSA; supershift, same sigmaA concentration as PDR; EMSA: 10 mM HEPES pH 7.6, 2 mM MgCl2, 0.1 mM EDTA, 200 mM KCl, 5 mM DTT, 10% glycerol; 10 ng DNA in 15 ul, 20 min, room temperature; conditions: protein: recombinant;recombinant; tags: N-terminal His6 (from expression primer);N-terminal His6 (from expression primer); chain copies: 2;1; label: 5' biotin on strand 1; blunt
T3 sequence (P06224 whole entry, one chain of several): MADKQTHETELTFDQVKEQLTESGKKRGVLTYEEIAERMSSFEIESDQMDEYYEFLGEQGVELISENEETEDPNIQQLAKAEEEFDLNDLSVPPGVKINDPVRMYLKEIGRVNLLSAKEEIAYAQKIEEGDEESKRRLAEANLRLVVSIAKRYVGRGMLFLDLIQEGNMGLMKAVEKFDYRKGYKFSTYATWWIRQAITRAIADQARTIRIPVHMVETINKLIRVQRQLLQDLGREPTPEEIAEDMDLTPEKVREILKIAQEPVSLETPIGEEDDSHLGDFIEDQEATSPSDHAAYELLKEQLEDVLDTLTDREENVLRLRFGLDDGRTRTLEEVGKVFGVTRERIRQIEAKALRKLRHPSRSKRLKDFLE

[5] = molecular target: T1, ComA; assay: EMSA; EMSA: 10 mM HEPES pH 7.6, 2 mM MgCl2, 0.1 mM EDTA, 200 mM KCl, 5 mM DTT, 10% glycerol; 10 ng DNA in 15 ul, 20 min, room temperature; conditions: protein: recombinant; tags: N-terminal His6 (from expression primer); chain copies: 2; label: 5' biotin on strand 1; blunt; remark: listed apart in the source
[6] = molecular target: T1, ComA; assay: EMSA; complex at 1.2 uM or more; affinity similar to PIR; EMSA: 10 mM HEPES pH 7.6, 2 mM MgCl2, 0.1 mM EDTA, 200 mM KCl, 5 mM DTT, 10% glycerol; 10 ng DNA in 15 ul, 20 min, room temperature; conditions: protein: recombinant; tags: N-terminal His6 (from expression primer); chain copies: 2; label: 5' biotin on strand 1; blunt
[7] = molecular target: T2, ComA;RNA polymerase alpha subunit; assay: EMSA; supershift; EMSA: 10 mM HEPES pH 7.6, 2 mM MgCl2, 0.1 mM EDTA, 200 mM KCl, 5 mM DTT, 10% glycerol; 10 ng DNA in 15 ul, 20 min, room temperature; conditions: protein: recombinant;recombinant; tags: N-terminal His6 (from expression primer);N-terminal His6 (from expression primer); label: 5' biotin on strand 1; blunt
[8] = molecular target: T3, ComA;sigma factor sigmaA; assay: EMSA; supershift, lower mobility than PIR; EMSA: 10 mM HEPES pH 7.6, 2 mM MgCl2, 0.1 mM EDTA, 200 mM KCl, 5 mM DTT, 10% glycerol; 10 ng DNA in 15 ul, 20 min, room temperature; conditions: protein: recombinant;recombinant; tags: N-terminal His6 (from expression primer);N-terminal His6 (from expression primer); chain copies: 2;1; label: 5' biotin on strand 1; blunt
[9] = molecular target: T1, ComA; assay: EMSA; EMSA: 10 mM HEPES pH 7.6, 2 mM MgCl2, 0.1 mM EDTA, 200 mM KCl, 5 mM DTT, 10% glycerol; 10 ng DNA in 15 ul, 20 min, room temperature; conditions: protein: recombinant; tags: N-terminal His6 (from expression primer); chain copies: 2; label: 5' biotin on strand 1; blunt; remark: listed apart in the source
[10] = molecular target: T1, ComA; assay: EMSA; multiple complexes; EMSA: 10 mM HEPES pH 7.6, 2 mM MgCl2, 0.1 mM EDTA, 200 mM KCl, 5 mM DTT, 10% glycerol; 10 ng DNA in 15 ul, 20 min, room temperature; conditions: protein: recombinant; tags: N-terminal His6 (from expression primer); chain copies: 2; label: 5' biotin on strand 1; blunt

B1: Ppel IR-DR core (dsDNA)
DNA 1: GGATTTTGCAGAATGCCGCAATAGGATAGCGGAACATTTTCGGTTCTG
DNA 2: CAGAACCGAAAATGTTCCGCTATCCTATTGCGGCATTCTGCAAAATCC
binding result [1]: binds

B2: Ppel DR1 only (dsDNA)
DNA 1: CGGCCTTTTGGTTTTTTTGCGGTCTGGCTGTTGGGAGTCTTTAGAAT
DNA 2: ATTCTAAAGACTCCCAACAGCCAGACCGCAAAAAAACCAAAAGGCCG
binding result [1]: no binding

B3: PIR (perfect inverted repeat) (dsDNA)
DNA 1: ATGTTTAGTGGAAATGATTGCGGCATCCCGCAAAAAATATTGCTGTAAAT
DNA 2: ATTTACAGCAATATTTTTTGCGGGATGCCGCAATCATTTCCACTAAACAT
binding result [2]: binds
binding result [3]: binds
binding result [4]: binds

B4: PIR C4A (dsDNA)
DNA 1: B3 DNA 1 with C31A
DNA 2: B3 DNA 2 with G20T
binding signal [5]: ~2 fold reduced affinity

B5: PDR (perfect direct repeat) (dsDNA)
DNA 1: AAACTGGAATCGAAACTTTGCGGCCATTTTGCGGTGATAAAAACATTTTT
DNA 2: AAAAATGTTTTTATCACCGCAAAATGGCCGCAAAGTTTCGATTCCAGTTT
binding result [6]: binds
binding result [7]: binds
binding result [8]: binds

B6: PDR G3T (dsDNA)
DNA 1: B5 DNA 1 with G31T
DNA 2: B5 DNA 2 with C20A
binding signal [5]: ~2 fold reduced affinity

B7: PDR ex7 (RE4 T1C) (dsDNA)
DNA 1: B5 DNA 1 with T29C
DNA 2: B5 DNA 2 with A22G
binding signal [9]: ~2 fold reduced affinity

B8: Ppel DR3 only (dsDNA)
DNA 1: CGGCCGGTTTTTTTTTGGCTGTTCTTTGCGGTGGGATTTTGCAGAAT
DNA 2: ATTCTGCAAAATCCCACCGCAAAGAACAGCCAAAAAAAAACCGGCCG
binding result [1]: no binding

B9: Ppel DR cluster (DR1-DR3) (dsDNA)
DNA 1: CGGCCTTTTGGTTTTTTTGCGGTCTTTGCGGTGGGATTTTGCAGAAT
DNA 2: ATTCTGCAAAATCCCACCGCAAAGACCGCAAAAAAACCAAAAGGCCG
binding result [10]: binds

B10: Ppel DR2 only (dsDNA)
DNA 1: CGGCCGGTTTTTTTTTTTGCGGTCTTTGCGGTGGGAGTCTTTAGAAT
DNA 2: ATTCTAAAGACTCCCACCGCAAAGACCGCAAAAAAAAAAACCGGCCG
binding result [1]: no binding
